Measurements published in the nanobody polyreactivity screen of Harvey et al. (2022).

assay: yeast display, Sf9 membrane polyspecificity reagent, FACS + sequencing; frameworks hold sequencing errors
Summary of the method: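 Galactose induction of a Saccharomyces cerevisiae BJ5465 synthetic nanobody display library ran 36–48 hours. The cells were then stained for 1 hour at 4 °C with 10% biotinylated, detergent-solubilized Sf9 membrane reagent, pulled down on streptavidin microbeads and FACS-sorted into low and high (top ~1%) gates on expression and reagent-binding fluorescence. Labels for polyreactivity follow the gate of origin.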

Row | Sequence | polyreactivity (PSR sort gate)
1 | QVQLVESGGGLVHAGGSLRLSCAASGSIFGTNAMGWYRQAPGQERELVAAISYSGGSTYYADSVKGRFTISRDPAKNTVYLQMNSLKPDDTAVYYCAKVVRYWWERDYWGKGTQVTVSS | high polyreactivity
2 | QVQLVESGGGLVQAGGSLRLSCAASGFTFSYNTMGWYRQAPGKERELVAAISGSGARTYYADSVKGRFTISRDNAKNSVYLQMNSLKPEDTAVYYCNAKYGYDSEARIVKPVRYDYWGQGTQVTVSS | high polyreactivity
3 | QVQLVESGGGLVQAGGSLRLSCAASGSTFAIYAMGWYRPAPGKERELVAAITLRTDSTYYADSVKGRFTISRDNAKNTVYLQMNSLKPEDTAVYYCNTVAYMRRFDKWGMNYWGQGTQVTVSS | low polyreactivity
4 | QVQLVESGGGLVQAGGSLRLSCAASGYIFLRNALGWYRQAPGKERELVAAIRRTGGSTYYADSVKGRFTISRDNAKNTVYLQMNSLKPEDTAVYYCAKRSYTGYEYWGQGTQVTVSS | low polyreactivity
5 | QVQLVESGGGLVQAGGSLRLSCAASGFIFVRYAMGWYRQAPGKERELVAAISSSGGTTNYADSVKGRFTISRDNAKNTVYLQMNSLKPEDTAVYYCAAYVYQTPHSLHIYDYWGQGTQVTVSS | low polyreactivity
6 | QVQLVESGGGLVQAGGSLRLSCAASGLTLETNAMGWYRQAPGKERELVAGITYSGGTTYYADSVKGRFTISRDNAKNTVYLQMNSLKPEDTAVYYCAAHTRTSGHNYWGQGTQVTVSS | low polyreactivity
7 | QVQLVESGRGLVQAGGSLRLSCASSGSTCVRNVMGWYRQAPGKERELVAAISRRGGGTYYADSVKGRFTISRDNAKNTVYLQMNSLKPEDTAVYYCATGSIAAGHYAYNYWGQGTQVTVSS | high polyreactivity
8 | QVQLHESGGGLVQAGGSLRLSCAASGTISYAGPMGWYRQAPGKEREFVAGIGVGSNTNYADSVKGRYTIIRDNAKNTVYLQMNSLKPEDTAVYYCAVGGYAPLGRPYWGQGTQVTVCS | low polyreactivity
9 | QVQLVESGGGLVQAGGSLGLSCAASGRTFFDYAMGWYRQAPGKERELVAAINWSGGRTYYADSVKGRFSISRDNAKNTVYLQMNSLKPEDTAVYDCNVYTRGRYEYWGQGTQVTVSS | low polyreactivity
10 | QVQLVESGGGLVQAGGSLRLSCAASGRIFYYYAMGWYRQAPGKERELVAVISRGGRTKYADSVKGRFTISRDNAKNTVYLQMNILKPEDTAVYYCAAYPSYYGDSGLRYDYWGQGTQVTVSS | high polyreactivity
11 | QVQLVESGGGLVQAGGSLRLSCAASGRTFSKYAMGWYRQAPGKERELVAAISKRGDSTYYADSVKGRFTISRDNAKNTVYLQMNSLKPEDTAVYYCARDDYRAYKSYYRYGYWGQGTQVTVSS | low polyreactivity
12 | QVQLVESGGGLVQAGGSLRLSCAASGSTFAQNAMGWYRQAPGKEREFVAAITGTVGSTYYADSVKGRFTISRDNAKNTVYLQMNSLKPEDTAVHYCAVVHVFYAVSYFSFYTYDYWGQGTQVTVSS | low polyreactivity
13 | QVQLVESGGGLVQAGGSLRLSCASSGSIFAGYAMGWYRQAPGKERELVATITSGGSTNYADSVKGRFTISRDNAKNTVYLQMNSLKPEDTAVYYCAADVEVSIPSSYTGGEYDYWGQGTQVTVSS | low polyreactivity
14 | QVQHVESGGGLVQAGGSLRLTCAATGRIFYTNTMGWYRQAPGKEREFVAAISWRGGSTYYADSVKGRFTISRDNAKNTVYLQMNSLKPEDTAVYYCAKTRTYFLSRYVSWGQGTQVTVSS | high polyreactivity
15 | QVQLVESGGGLVQAGGSLRLSCAASGITFPGNAMGWYRQAPGKERELVAVISSGTSTNYADSVKGRFTISRDNAKYTVYLQMNSLKPEDTAVYYCATSLYYYPYYYWGQGTQVTVSS | low polyreactivity
16 | QVQLVESGGGLVQAGGILRLSCAASGSTFRIYAKGWYRPAPGKERELVAGIRSSGGSTYYADSVKGRFTISRDKAKNTDYLQLNSLKPEDTAVYYCAKRHPYSWGSYQRYNYWGQGTQVTVSS | low polyreactivity
17 | QVQLVESGRGLVQAGGSLRLSCAASGRIFKGYAMGWYRQAPGKERELVAAITTSGGGTYSADSVKGRFTFSRDNAKNTVYLQMNSLKPEDPAVYYCAKTLGSQNYDFDYWGQGTQVTVSS | low polyreactivity
18 | QGQLEESGGGLVQAGGSLRLSCAASGRIFRYNTMGWYRQAPGKERELVADITSSDSSTYYADSVKGRFTISRDNAKNTLYLQMNSLKPEDTEVYFCAARDSGYGWRYYYWGHGTQVTVSS | low polyreactivity
19 | QVQLVESGGGLVQAGGSLRLSCAASGFIFWVNAMGWYRQAPGKERELVAAISQSGGTTYYADSVKGRFTISRDNAKNTVYFQMNSLKPEDTAVYYCNALWRGHGRYNYWGQGTQVTVSS | low polyreactivity
20 | QVQLVESAGGVVQAGGSLRLSSAASGSIFDGNAMGWYRPAPGKERQLVAAISGGGRTYYADSVKGRFTISRDNAKNTVYLQMNSLKPEDTAVYYCAAAYTFYVYGSYKVTFDYWGQGTQVTVSS | low polyreactivity
21 | QVQLVESGGGLVQAGGSLRLSCAASGLTFDPYALGWYRQAPGKERELVATISWSTSSTYYADSVKGRFTISRDNAKNTVYLQMNSLKPEDTAVYYCNAGYIESWFLQWIEYDYWGQGTQVTVSS | high polyreactivity
22 | QVQLVESGGGLVQAGGSLRLSCAASGRTWSNAMGWYRQAPGKERELVAVITWDGVITYYADSVKGRFTISRDNAKNTVYLQMNSLKPEETAVYYCAATVYPGAGDYWGQGTQVTVSS | high polyreactivity

Row | Sequence | polyreactivity (PSR sort gate)
23 | QVQLEESGGGLVQAGGSLRLSCAASGITIWGYTMGWYRQAPGKERELVAAITSTGSTYYADSVKGRFTISRDNAKNTVYLQMNSLKPEDTSVYYCAATRGSSEYYYWGQGTQVTVSS | low polyreactivity
24 | QVQLEESGGGLVQAGGSLRLSCAASGRIFRPYAMGWYRQAPGKERELVAAISFSGGSTYYADSVKGRFTISRDNAKNTVYLQMNSLKPEDTAVYYCNKDLYRYPGYDYWGQGTQVTVSS | high polyreactivity
25 | QVQLVESGGGLVQAGGSLRLSCAASGSIFYSYAMGWYRQAPGKERELVAAISWDASTYYADSVKGRFTISRDNAKNTVYLQMNSLKPEDTAVYFCNADIPYYFVYDAYDYWGQGTQVTVSS | low polyreactivity
26 | QVQLVESGGGLVQAGGSLRLSCAASGTTFVYYAMVWYRQAPGKERYLVAAITWNGGSTYYADSVKGRFTISRDNAKNTVYFQMNSLKPEDTAVYYCNAAFRAGAVYGYYWGQGTQVTVSS | high polyreactivity
27 | QVQLVESGGGLVQAGGSLRLSCAASGSTFSLNDRGWYRQAPGKERELVAVISSSTGITYYADSVKGRFTISRDNAKYTVYLQMNSLKPEDTAVYYCNADKWEVYYTRMYYWGQGTQVTVSS | low polyreactivity
28 | QVQLVESGGGLVQAGGSLRLSCAASGIIFWYYAMGWYRQAPGKERELVAAINSGGSTNYADSVKGRFTISRDNAKNTVYLQMNSLKQEDTAVYYCAARYRWPIPGTQYEYWGQGTQVTVSS | low polyreactivity
29 | QVQLVESGGGLVQAGGSLRLSCAASGFIFGVYDMGWYRQAPGKERELVAAIDSVGSTYYADSVKGRFTISRDNAKNTVYFQMNSLKPEDTAGYYCNAARSRLYYVKYYYWGQGTQVTVSS | low polyreactivity
30 | QVQIVESGGGLVQAGGSLRLSCAASGIIFDGYAMGWYRQAPGKERELVAGITIGDITYYADSVKGRFTISRDNAKITVYLQMNSLKPEDTAVYYCAADSYYYQTAYDYWGQGTQVTVSS | low polyreactivity
31 | QVQLVESGGGLVQAGGSLRLSCAASGSTLTANAMGWYRQAPGKERELVAAISSAGRTYYADSVKGRFTISRDNAKNTVYLQMNSLKPEDTAVYYCAAPYGQLFTQGTWYEYWGQGTQVTVSS | low polyreactivity
32 | QVQLVESGGGLVQAGGSLRLSCAASGSTISSYAMGWYRPAPGKERELVAANTSGGSTYYADSLKGRFTISRDNAKNSVSLQMNSLKPEDTAVYYCDLGSTTMDYWGQGTQVTVSS | low polyreactivity
33 | QVQLVESGGGLVQAGGSLRLSCAASGSIFTPYAMGWYRQEPGKERELVAAISRSGGSTYYADSVKGRFTISRDNAKNTVYLQMNSLKPEDTAVYYCAVVVYDIYGYESDYWGQGTQVTVSS | low polyreactivity
34 | QVQLVESGGGLVQAGGSLRLSCAASGITFRGYAMGWYRQAPGKERELVATISYRGGNTYYADSVKGRFTISRDNAKNTVYLQMNSLKPEDTAVYYCARKYFRTSNLYGYWGQGTQVTVSS | high polyreactivity
35 | QVQLVESGGGLVQAGGSLRLSCAASGSTSYYYAMGWYRQAPGKERELVAAISYSGGRTYYADSVKGRFTISRDNAKNTVYLQMNSLKPEDTAVYYCAKTFRGQPYLRYRYYYWGQGTQVTVSS | high polyreactivity
36 | QVQLVESGGGLVQAGGSLRLSCAASGRTFSPYAMGWYRQAPGKERELVAAIYNGGSTYYADSVKGRFTISRDNAKNTVYLQMNSLKPEDTAVYYCAAGRKSLYRIYSEYVEFDYWGQGTQVTVSS | low polyreactivity
37 | QVQLVESGGGLVQAGGSLRLSCAASGIIFSGNAMGWYRQAPGKERELVAAITRGGRTYYADSVKGRFTISRDNAKNTVFFQFNSLKPEDTAVYYCGAGYPYSYREYYYWGQGSQVTVSS | high polyreactivity
38 | QVQLVESGGGLVQAGGSLRLSCAASGFTFEEYAMGWYRQAPGKERELVAAIDYTVGSTYYADSVKGRFTISRDNAKNTVYLQMNSLKPEDTAVYYCNVDLSYSFNSAYGYWGQGTQVTVSS | low polyreactivity
39 | QVQLVESGGGLVQAGGSLRLSCAASGSIFTLYAMGRYRQAPGKERELVAAITWSGGSSYYADSVKGRFTISRDNAKNTVYLQMNSLKPEDTAVYYCAKDYLAGGPWEGLVEREYDYWGQGTQVTVSS | low polyreactivity
40 | QEQLVESGGGLVQAGGSLRLSCAASGSTFYANAMGWYRQAPGQERELVAAISWDGGNTYYADSVKGRFTISRDNAKNNVYLQMNSLKPEDTAVYYCARDYYGTVYYYGYDYWGQGTQVTVSS | low polyreactivity
41 | QVQLVESGGGLVQAGGSLRLSCAASGSIFIRNAMGWYRQAPGKERELVAAITSGGNTYYADSVKGRFTISRDNAKNTVYFQMNSLKPEDTAVWGQGTQVTLSS | low polyreactivity
42 | QVQLVESGGGLVQAGGSLRLSCAASGRIFYIHAMGWYRQAPGKERELVAAITSNGGSTYYADSVKGRFTISRDNAKNTVYLQMNCLKPEDTAVYYCAARRYKVSRTSYGYGYWGQGTQVTVSS | high polyreactivity
43 | QVQLVDSGGGLVQAGGSLRLSCADSGRTFYTNAMGWYRQAPGKERELVAAIDISGSTYYADSVKGRFTISRDNAKNTVYLQMNSLKPEDTAVYYCNVDTVCLGGEKGGYYWGQGSQVTVSS | low polyreactivity
